In US20160311883A1 (Eli Lilly, published 2016):
Square brackets hold non-standard residues; d marks the D form. Ends that are not written are not given here. Aib = CC(C)(N)C(=O)O

Target: human glucagon receptor (hGR) (human, UniProt P47871 26-477)
Assay: cell-based or functional assay

Sequence of human glucagon receptor (hGR) (P47871 26-477): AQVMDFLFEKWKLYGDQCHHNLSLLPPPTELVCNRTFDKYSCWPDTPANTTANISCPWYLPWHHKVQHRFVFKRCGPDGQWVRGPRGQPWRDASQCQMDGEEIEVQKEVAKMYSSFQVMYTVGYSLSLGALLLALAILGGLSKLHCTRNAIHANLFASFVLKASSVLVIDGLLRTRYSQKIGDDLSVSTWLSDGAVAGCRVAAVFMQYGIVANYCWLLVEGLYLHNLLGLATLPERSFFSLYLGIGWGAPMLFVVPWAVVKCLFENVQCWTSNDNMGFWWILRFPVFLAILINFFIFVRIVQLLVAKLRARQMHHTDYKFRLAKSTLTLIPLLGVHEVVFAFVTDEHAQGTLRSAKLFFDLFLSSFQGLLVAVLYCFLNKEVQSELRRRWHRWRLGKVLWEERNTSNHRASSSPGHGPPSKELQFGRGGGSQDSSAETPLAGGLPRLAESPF

B1: compound of SEQ ID NO: 2 (peptide)
peptide: YSHGTFTSDVSKYLD[Aib]KKAAEFVAWLLEE-OH
modifications: N-terminus assumed
SMILES: CC(C)C[C@H](NC(=O)[C@H](Cc1c[nH]c2ccccc12)NC(=O)[C@H](C)NC(=O)[C@@H](NC(=O)[C@H](Cc1ccccc1)NC(=O)[C@H](CCC(=O)O)NC(=O)[C@H](C)NC(=O)[C@H](C)NC(=O)[C@H](CCCCN)NC(=O)[C@H](CCCCN)NC(=O)C(C)(C)NC(=O)[C@H](CC(=O)O)NC(=O)[C@H](CC(C)C)NC(=O)[C@H](Cc1ccc(O)cc1)NC(=O)[C@H](CCCCN)NC(=O)[C@H](CO)NC(=O)[C@@H](NC(=O)[C@H](CC(=O)O)NC(=O)[C@H](CO)NC(=O)[C@@H](NC(=O)[C@H](Cc1ccccc1)NC(=O)[C@@H](NC(=O)CNC(=O)[C@H](Cc1c[nH]cn1)NC(=O)[C@H](CO)NC(=O)[C@@H](N)Cc1ccc(O)cc1)[C@@H](C)O)[C@@H](C)O)C(C)C)C(C)C)C(=O)N[C@@H](CC(C)C)C(=O)N[C@@H](CCC(=O)O)C(=O)N[C@@H](CCC(=O)O)C(=O)O
**Q.** For B1, which “hGR stimulated cAMP functional assay, relative EC50” value is on record?
**A.** Its value is 0.0658 ηM.
